Reference: publication PMC8110528, “MyD88 TIR domain higher-order assembly interactions revealed by microcrystal electron diffraction and serial femtosecond crystallography” (Nature Communications, 2021)

Target: T1, GFP-MAL^TIR fusion protein (EGFP residues 3-239; MAL residues 79-221) (UniProt P58753 79-221)
T1 construct: MAL (MyD88 adaptor-like/TIRAP), TIR domain, residues 79-221; Printed order of the fusion: EGFP residues 3-239, GSGGS linker, MAL residues 79-221, in pMCSG7; source: E. coli BL21 (DE3), purified (HisTrap FF, Superdex 75)
T1 sequence (P58753 79-221): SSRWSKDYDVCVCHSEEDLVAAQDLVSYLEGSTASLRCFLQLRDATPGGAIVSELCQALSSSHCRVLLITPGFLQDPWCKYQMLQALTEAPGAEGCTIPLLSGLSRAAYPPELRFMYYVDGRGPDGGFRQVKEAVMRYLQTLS
Experiment: crystal growth assay (DIC and GFP fluorescence microscopy); GFP-MAL^TIR-MyD88^TIR or MAL^TIR-MyD88^TIR seeds washed three times, diluted and mixed with MyD88^TIR (95 µM); 10 mM HEPES pH 7.5, 150 mM NaCl, 30 °C
Conditions: both partners purified

- binding result: binds
B1: MyD88 TIR domain (MyD88^TIR), residues 155-296 (domain or fragment, human, UniProt Q99836 155-296, looked up)
chain: GHMPERFDAFICYCPSDIQFVQEMIRQLEQTNYRLKLCVSDRDVLPGTCVWSIASELIEKRCRRMVVVVSDDYLQSKECDFQTKFALSLSPGAHQKRLIPIKYKAMKKEFPSILRFITVCDYTNPCTKSWFWTRLAKALSLP
notes: MyD88 (myeloid differentiation primary response gene 88), TIR domain, residues 155-296 in pET28b; Forms open-ended two-stranded higher-order assemblies in the MAL-induced microcrystals; source: E. coli BL21 (DE3), purified (HisTrap FF, Superdex 75)
